Our source for the abundance fitness values is the Human Domainome abundance scans (Beltran et al. 2025).

± gives the uncertainty stated by the source.

B1: Transcriptional regulator ERG, residues 117 to 197; numbered along this chain, P11308 (parent)
chain: NMTTNERRVIVPADPTLWSTDHVRQWLEWAVKEYGLPDVNILLFQNIDGKELCKMTKDDFQRLTPSYNADILLSHLHYLRE

The data set covers variants of B1. In words: abundance fitness (aPCA) (normalised: wild type 0, dead -1); higher = more abundant; growth selection in yeast, the domain comes from the species named. Particulars: Homo sapiens.
Turning to NMTTNERRVIVPADPTLWSTDHVRQWLEWAVKEYGLIDVNILLFQNIDGKELCKMTKDDFQRLTPSYNADILLSHLHYLRE [P37I], the abundance fitness is 0.106 ± 0.052.
Consider NMTTNERRVIVPADPTLWSTDHVRQWLEWAVKEYGLKDVNILLFQNIDGKELCKMTKDDFQRLTPSYNADILLSHLHYLRE [P37K], for which the abundance fitness is 0.054 ± 0.054.
Take NMTTNERRVIVPADPTLWSTDHVRQWLEWAVKEYGLRDVNILLFQNIDGKELCKMTKDDFQRLTPSYNADILLSHLHYLRE [P37R]: the abundance fitness turned out to be 0.014 ± 0.039.
With NMTTNERRVIVPADPTLWSTDHVRQWLEWAVKEYGLNDVNILLFQNIDGKELCKMTKDDFQRLTPSYNADILLSHLHYLRE [P37N] the figure was 0.072 ± 0.052; with NMTTNERRVIVPADPTLWSTDHVRQWLEWAVKEYGLEDVNILLFQNIDGKELCKMTKDDFQRLTPSYNADILLSHLHYLRE [P37E], 0.018 ± 0.06; with NMTTNERRVIVPADPTLWSTDHVRQWLEWAVKEYGLCDVNILLFQNIDGKELCKMTKDDFQRLTPSYNADILLSHLHYLRE [P37C], 0.017 ± 0.06.
With NMTTNERRVIVPADPTLWSTDHVRQWLEWAVKEYGLVDVNILLFQNIDGKELCKMTKDDFQRLTPSYNADILLSHLHYLRE [P37V] the figure was -0.024 ± 0.044.
NMTTNERRVIVPADPTLWSTDHVRQWLEWAVKEYGLPDANILLFQNIDGKELCKMTKDDFQRLTPSYNADILLSHLHYLRE [V39A]: the abundance fitness was -0.169 ± 0.044.
The figure for NMTTNERRVIVPADPTLWSTDHVRQWLEWAVKEYGLPDYNILLFQNIDGKELCKMTKDDFQRLTPSYNADILLSHLHYLRE [V39Y] is -0.252 ± 0.088.
With NMTTNERRVIVPADPTLWSTDHVRQWLEWAVKEYGLPDTNILLFQNIDGKELCKMTKDDFQRLTPSYNADILLSHLHYLRE [V39T] the figure was -0.002 ± 0.053; with NMTTNERRVIVPADPTLWSTDHVRQWLEWAVKEYGLPDWNILLFQNIDGKELCKMTKDDFQRLTPSYNADILLSHLHYLRE [V39W], -0.334 ± 0.05; with NMTTNERRVIVPADPTLWSTDHVRQWLEWAVKEYGLPDLNILLFQNIDGKELCKMTKDDFQRLTPSYNADILLSHLHYLRE [V39L], 0.066 ± 0.037.
The figure for NMTTNERRVIVPADPTLWSTDHVRQWLEWAVKEYGLPDSNILLFQNIDGKELCKMTKDDFQRLTPSYNADILLSHLHYLRE [V39S] is -0.116 ± 0.046; for NMTTNERRVIVPADPTLWSTDHVRQWLEWAVKEYGLPDCNILLFQNIDGKELCKMTKDDFQRLTPSYNADILLSHLHYLRE [V39C] it is 0.005 ± 0.053.
As for NMTTNERRVIVPADPTLWSTDHVRQWLEWAVKEYGLPDNNILLFQNIDGKELCKMTKDDFQRLTPSYNADILLSHLHYLRE [V39N], the abundance fitness was -0.144 ± 0.077.
With NMTTNERRVIVPADPTLWSTDHVRQWLEWAVKEYGLPDDNILLFQNIDGKELCKMTKDDFQRLTPSYNADILLSHLHYLRE [V39D] the figure was -0.241 ± 0.072; with NMTTNERRVIVPADPTLWSTDHVRQWLEWAVKEYGLPDQNILLFQNIDGKELCKMTKDDFQRLTPSYNADILLSHLHYLRE [V39Q], -0.219 ± 0.063.
For NMTTNERRVIVPADPTLWSTDHVRQWLEWAVKEYGLPDKNILLFQNIDGKELCKMTKDDFQRLTPSYNADILLSHLHYLRE [V39K], the abundance fitness was -0.242 ± 0.068.
The figure for NMTTNERRVIVPADPTLWSTDHVRQWLEWAVKEYGLPDINILLFQNIDGKELCKMTKDDFQRLTPSYNADILLSHLHYLRE [V39I] is 0.007 ± 0.064; for NMTTNERRVIVPADPTLWSTDHVRQWLEWAVKEYGLPDMNILLFQNIDGKELCKMTKDDFQRLTPSYNADILLSHLHYLRE [V39M] it is -0.045 ± 0.052; for NMTTNERRVIVPADPTLWSTDHVRQWLEWAVKEYGLPDPNILLFQNIDGKELCKMTKDDFQRLTPSYNADILLSHLHYLRE [V39P] it is -0.295 ± 0.072.
The figure for NMTTNERRVIVPADPTLWSTDHVRQWLEWAVKEYGLPDFNILLFQNIDGKELCKMTKDDFQRLTPSYNADILLSHLHYLRE [V39F] is 0.04 ± 0.074; for NMTTNERRVIVPADPTLWSTDHVRQWLEWAVKEYGLPDRNILLFQNIDGKELCKMTKDDFQRLTPSYNADILLSHLHYLRE [V39R] it is -0.278 ± 0.036; for NMTTNERRVIVPADPTLWSTDHVRQWLEWAVKEYGRPDVNILLFQNIDGKELCKMTKDDFQRLTPSYNADILLSHLHYLRE [L36R] it is -0.81 ± 0.07.
With NMTTNERRVIVPADPTLWSTDHVRQWLEWAVKEYGMPDVNILLFQNIDGKELCKMTKDDFQRLTPSYNADILLSHLHYLRE [L36M] the figure was -0.038 ± 0.053; with NMTTNERRVIVPADPTLWSTDHVRQWLEWAVKEYGSPDVNILLFQNIDGKELCKMTKDDFQRLTPSYNADILLSHLHYLRE [L36S], -0.829 ± 0.13; with NMTTNERRVIVPADPTLWSTDHVRQWLEWAVKEYGTPDVNILLFQNIDGKELCKMTKDDFQRLTPSYNADILLSHLHYLRE [L36T], -0.357 ± 0.083.
With NMTTNERRVIVPADPTLWSTDHVRQWLEWAVKEYGWPDVNILLFQNIDGKELCKMTKDDFQRLTPSYNADILLSHLHYLRE [L36W], the abundance fitness is -0.253 ± 0.047.
With NMTTNERRVIVPADPTLWSTDHVRQWLEWAVKEYGQPDVNILLFQNIDGKELCKMTKDDFQRLTPSYNADILLSHLHYLRE [L36Q] the figure was -0.67 ± 0.12; with NMTTNERRVIVPADPTLWSTDHVRQWLEWAVKEYGYPDVNILLFQNIDGKELCKMTKDDFQRLTPSYNADILLSHLHYLRE [L36Y], -0.375 ± 0.15; with NMTTNERRVIVPADPTLWSTDHVRQWLEWAVKEYGVPDVNILLFQNIDGKELCKMTKDDFQRLTPSYNADILLSHLHYLRE [L36V], -0.225 ± 0.04.
The figure for NMTTNERRVIVPADPTLWSTDHVRQWLEWAVKEYGIPDVNILLFQNIDGKELCKMTKDDFQRLTPSYNADILLSHLHYLRE [L36I] is -0.066 ± 0.089; for NMTTNERRVIVPADPTLWSTDHVRQWLEWAVKEYGPPDVNILLFQNIDGKELCKMTKDDFQRLTPSYNADILLSHLHYLRE [L36P] it is -1.08 ± 0.22.
With NMTTNERRVIVPADPTLWSTDHVRQWLEWAVKEYGNPDVNILLFQNIDGKELCKMTKDDFQRLTPSYNADILLSHLHYLRE [L36N] the figure was -0.75 ± 0.16.
